Reference: the supplement of paper PMC7125110
± gives the standard error. Variants at the floor of the assay were thinned out.

B1: glmS ribozyme (parent)
chain: AUAAAAGCGCCAGAACUACAGAAAUGUAGUUGACGAGGAGGAGGUUUAUCGAAUUUUCGGCGGAUGCCUCCAAA

How the values were obtained:
Settings in all cases: with glucosamine-6-phosphate
[1] = variants of: B1; experiment: self-cleavage kobs at 40 uM GlcN6P; higher = faster cleavage; RNA array
Outline: (§1)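 Ribozyme variants carrying barcodes were transcribed in situ on sequenced MiSeq chips by E. coli RNA polymerase and tracked at 37 °C with a hybridised Cy3 probe. They were exposed to 40 μM to 10 mM glucosamine-6-phosphate in HEPES/KCl/Mg(OAc)2 buffer. kobs came from exponential decay fits of normalised per-tile medians, and kcat and KM from weighted Michaelis–Menten fits.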

[2] = variants of: B1; experiment: self-cleavage kobs at 2500 uM GlcN6P; higher = faster cleavage; RNA array
Outline: as §1

[3] = variants of: B1; experiment: self-cleavage kobs at 10000 uM GlcN6P; higher = faster cleavage; RNA array
Outline: as §1

[4] = variants of: B1; experiment: self-cleavage kobs at 160 uM GlcN6P; higher = faster cleavage; RNA array
Outline: as §1

[5] = variants of: B1; experiment: self-cleavage kobs at 640 uM GlcN6P; higher = faster cleavage; RNA array
Outline: as §1

Row | Variant | self-cleavage kobs at 40 uM GlcN6P [1] | self-cleavage kobs at 2500 uM GlcN6P [2] | self-cleavage kobs at 10000 uM GlcN6P [3] | self-cleavage kobs at 160 uM GlcN6P [4] | self-cleavage kobs at 640 uM GlcN6P [5]
1 | A33G C34U C68U | < 1e-05 s⁻¹ | – | – | – | –
2 | C16U U31C A36G G41C | < 1e-05 s⁻¹ | < 1e-05 s⁻¹ | < 1e-05 s⁻¹ | – | –
3 | A15C U46A C58U | < 1e-05 s⁻¹ | – | – | – | –
4 | G13A C16U C67U | < 1e-05 s⁻¹ | 0.000111 ± 2.7e-05 s⁻¹ | 0.00025 ± 4.5e-05 s⁻¹ | – | –
5 | C8G C50U | < 1e-05 s⁻¹ | < 1e-05 s⁻¹ | < 1e-05 s⁻¹ | < 1e-05 s⁻¹ | < 1e-05 s⁻¹
6 | G13C C16A G37U | < 1e-05 s⁻¹ | – | < 1e-05 s⁻¹ | – | –
7 | C34U C61A C67G | 0.00044 ± 0.00014 s⁻¹ | – | – | – | 0.000318 ± 0.00013 s⁻¹
8 | C10G C34A A48C U49C | < 1e-05 s⁻¹ | – | – | – | –
9 | G7C U56A G60U G62A | < 1e-05 s⁻¹ | – | – | – | –
10 | A6G C10G U31G U55A | < 1e-05 s⁻¹ | – | – | – | –
11 | A6C G32C U49G | < 1e-05 s⁻¹ | – | < 1e-05 s⁻¹ | – | –
12 | C16G U31C U45C | < 1e-05 s⁻¹ | – | – | – | –
13 | U31G A53G | 0.000276 ± 4.7e-05 s⁻¹ | 0.00382 ± 0.00096 s⁻¹ | 0.02 ± 0.0035 s⁻¹ | 0.000661 ± 0.00018 s⁻¹ | –
14 | G35U G60U | < 1e-05 s⁻¹ | < 1e-05 s⁻¹ | < 1e-05 s⁻¹ | < 1e-05 s⁻¹ | < 1e-05 s⁻¹
15 | A33U G51C G60U G63U | < 1e-05 s⁻¹ | – | – | – | –
16 | C34A G41U G62A | < 1e-05 s⁻¹ | – | < 1e-05 s⁻¹ | – | –
17 | A12G A15U U49A U54G | < 1e-05 s⁻¹ | – | – | – | –
18 | G7A A39C G51U | < 1e-05 s⁻¹ | < 1e-05 s⁻¹ | – | < 1e-05 s⁻¹ | –
19 | U31G G44U C61U | < 1e-05 s⁻¹ | – | < 1e-05 s⁻¹ | – | –
20 | G9A U31G A39G A48C G60C | < 1e-05 s⁻¹ | – | – | – | –
21 | G9U C67G | < 1e-05 s⁻¹ | < 1e-05 s⁻¹ | – | < 1e-05 s⁻¹ | –
22 | C10G U47G | < 1e-05 s⁻¹ | – | < 1e-05 s⁻¹ | – | –
23 | C8U C10A C50G | 9.57e-05 ± 2e-05 s⁻¹ | 8.56e-05 ± 2.1e-05 s⁻¹ | 9.18e-05 ± 1.7e-05 s⁻¹ | 0.000179 ± 2.8e-05 s⁻¹ | –
24 | A36U C67U C70G | 7.02e-05 ± 2.8e-05 s⁻¹ | – | 3.53e-05 ± 1.7e-05 s⁻¹ | – | –
25 | G60U U69G | < 1e-05 s⁻¹ | – | < 1e-05 s⁻¹ | – | < 1e-05 s⁻¹
26 | G43A G51A | < 1e-05 s⁻¹ | < 1e-05 s⁻¹ | < 1e-05 s⁻¹ | < 1e-05 s⁻¹ | –
27 | A42C A64G | < 1e-05 s⁻¹ | – | – | < 1e-05 s⁻¹ | < 1e-05 s⁻¹
